In publication doi:10.1101/2022.05.06.490478 (bioRxiv, 2022):

Columns and labels:
single molecule pulldown = molecular target: the molecule itself; experiment: single molecule pulldown
cryo-EM structure = molecular target: the molecule itself; experiment: cryo-EM structure

| Protein | stoichiometry N (single molecule pulldown) | stoichiometry N (cryo-EM structure) |
| --- | --- | --- |
| C. elegans TMC-1 with C-terminal 3C site-mVenus-3xFLAG (tmc-1::mVenus knock-in) (natural protein, UniProt D3KZG3 1-1285, looked up) MQEAARRASLRKEHTPTNEKFGDLSKQDSLGERASSKLTLDDELYDILYAFGETDAFINKGDKQRETDEDGNPLTRQALLERIRQKKEVIGKLRCQAWSMTRKRRTLKLAQKYLEQHESKVSRSHLYMEEMRKRARLMKRSFSNFKTYLIPWESKIKRIESHFGSVVSSYFTFLRWIVFVNIMITLIALVFVVLPETLADSVANEGRFNRTKTRKQIPANERVHADELAVVWHYDGYLRYSPLFYGYYSDDPFLGNKIKYALPLAYFMVTLTIFAYSFFAILRKMAANARMSKLSGSKAEQYIFNWKLFTGWDYTIGNSETASNTVMAVVIKLRESIADIKKDAHGKFRLLQFSLRVFANIIICAMLGFSIYCIIFAVQKSQVQDDGNLFTKNQVPSVVSTITHVFPMIFDLIGKMENYHPRTALRAHLGRVLILYTVNYITLIFALFEKMTALRDRVNSTSTSSSHRTKRQQGGWNPNMQRPPPYASRAEVRQMSDFLAANTRRFQTVSQRTTRSVTTPFTVAPQFGPFNVNNPNAVFHNGTHSTSFESQILGPKALPIFTPPPRKYPGFTPGNVGQQFGGPDFPRNQVYTKSTPLPRVRTKPPWVYTTTHPPLVQNRAMTTTMSKSAKKGNSKNLDDDILLSNETIQMSEAALRRNHDGHNNDICWETIIGQEIVKLVTMDLIFTILSILVIDLFRGLWIKYCSSWWCWDIETTFPEYGEFKVAENVLHIINNQGMIWLGLFFAPLLPAINNIKLIILMYIRGWAVMTCNVPAREIFRASRSSNFYLGILLIWLLLCTLPVGFVIASMSPSRSCGPFARYQHFYTVVTREIEKRVDQTVLSYIRHIASPGVVIPIILFLILIIYFLFSLVRGLREANTDLQAQLVHERTEEKKKIFELAGGKKNKFEKDRDKKRSNDYIPLIEQRRREPWRQYHEMEADHALASDSSEESDINEDEDDERQPLTAYPLRAIETPPETLQVTAFHPSLGSLIENREMEDEESASGDQLPMIHKSVSFQGPSHMQMRQSISTESCSQISRSAIQVATPEEIRALLRPYLEAKYGIPYQHGIKSFPIDVHTPPNNTPSRRSSKYNSFVSLYEHTRDDHKNFVASTIKETDEDPGKSDKKQTSSKDVAPDFMPWPSADEARALREKMKSKTPLMLTKTTVEEKPKGGKSSESEFRPPVPIHRKYNIQTTEEENEEEETDSAPESSKKRFRISVSPTKTIAPASASRAQHKIVSQASSSSSIPHGRQPDPNKKASLVLPPLRAPRVQFDEDDSPRQID | 2 | – |
| C. elegans TMC-1 (pore-forming subunit of the native TMC-1 complex), after removal of mVenus-3xFLAG by 3C protease (natural protein, UniProt D3KZG3 1-1285, looked up, N-linked glycan at N209) MQEAARRASLRKEHTPTNEKFGDLSKQDSLGERASSKLTLDDELYDILYAFGETDAFINKGDKQRETDEDGNPLTRQALLERIRQKKEVIGKLRCQAWSMTRKRRTLKLAQKYLEQHESKVSRSHLYMEEMRKRARLMKRSFSNFKTYLIPWESKIKRIESHFGSVVSSYFTFLRWIVFVNIMITLIALVFVVLPETLADSVANEGRFNRTKTRKQIPANERVHADELAVVWHYDGYLRYSPLFYGYYSDDPFLGNKIKYALPLAYFMVTLTIFAYSFFAILRKMAANARMSKLSGSKAEQYIFNWKLFTGWDYTIGNSETASNTVMAVVIKLRESIADIKKDAHGKFRLLQFSLRVFANIIICAMLGFSIYCIIFAVQKSQVQDDGNLFTKNQVPSVVSTITHVFPMIFDLIGKMENYHPRTALRAHLGRVLILYTVNYITLIFALFEKMTALRDRVNSTSTSSSHRTKRQQGGWNPNMQRPPPYASRAEVRQMSDFLAANTRRFQTVSQRTTRSVTTPFTVAPQFGPFNVNNPNAVFHNGTHSTSFESQILGPKALPIFTPPPRKYPGFTPGNVGQQFGGPDFPRNQVYTKSTPLPRVRTKPPWVYTTTHPPLVQNRAMTTTMSKSAKKGNSKNLDDDILLSNETIQMSEAALRRNHDGHNNDICWETIIGQEIVKLVTMDLIFTILSILVIDLFRGLWIKYCSSWWCWDIETTFPEYGEFKVAENVLHIINNQGMIWLGLFFAPLLPAINNIKLIILMYIRGWAVMTCNVPAREIFRASRSSNFYLGILLIWLLLCTLPVGFVIASMSPSRSCGPFARYQHFYTVVTREIEKRVDQTVLSYIRHIASPGVVIPIILFLILIIYFLFSLVRGLREANTDLQAQLVHERTEEKKKIFELAGGKKNKFEKDRDKKRSNDYIPLIEQRRREPWRQYHEMEADHALASDSSEESDINEDEDDERQPLTAYPLRAIETPPETLQVTAFHPSLGSLIENREMEDEESASGDQLPMIHKSVSFQGPSHMQMRQSISTESCSQISRSAIQVATPEEIRALLRPYLEAKYGIPYQHGIKSFPIDVHTPPNNTPSRRSSKYNSFVSLYEHTRDDHKNFVASTIKETDEDPGKSDKKQTSSKDVAPDFMPWPSADEARALREKMKSKTPLMLTKTTVEEKPKGGKSSESEFRPPVPIHRKYNIQTTEEENEEEETDSAPESSKKRFRISVSPTKTIAPASASRAQHKIVSQASSSSSIPHGRQPDPNKKASLVLPPLRAPRVQFDEDDSPRQID | – | 2 |
